Experimental data from article PMC10183053 (Journal of biomolecular structure & dynamics, 2022).
Read-outs that look alike come from different tables or passages of the source.

Key:
[1] = target: the molecule itself; test: crystal structure
[2] = target: the molecule itself; test: crystal structure; remark: listed apart in the source

| Protein | stoichiometry N [1] | stoichiometry N [2] |
| --- | --- | --- |
| human Hsp90α_293–699 (wild type Hsp90α middle/C-terminal domain) (domain or fragment) not shown | 6 | – |
| human Hsp90α_293–714_W320A mutant (domain or fragment) not shown | – | 2 |
